Data: paper PMC10798858

Target: Laa1-myc (budding yeast (S. cerevisiae)) (UniProt P39526)
Assay: co-IP

Chain of UniProt P39526 (P39526 whole entry, the tested form may be a part): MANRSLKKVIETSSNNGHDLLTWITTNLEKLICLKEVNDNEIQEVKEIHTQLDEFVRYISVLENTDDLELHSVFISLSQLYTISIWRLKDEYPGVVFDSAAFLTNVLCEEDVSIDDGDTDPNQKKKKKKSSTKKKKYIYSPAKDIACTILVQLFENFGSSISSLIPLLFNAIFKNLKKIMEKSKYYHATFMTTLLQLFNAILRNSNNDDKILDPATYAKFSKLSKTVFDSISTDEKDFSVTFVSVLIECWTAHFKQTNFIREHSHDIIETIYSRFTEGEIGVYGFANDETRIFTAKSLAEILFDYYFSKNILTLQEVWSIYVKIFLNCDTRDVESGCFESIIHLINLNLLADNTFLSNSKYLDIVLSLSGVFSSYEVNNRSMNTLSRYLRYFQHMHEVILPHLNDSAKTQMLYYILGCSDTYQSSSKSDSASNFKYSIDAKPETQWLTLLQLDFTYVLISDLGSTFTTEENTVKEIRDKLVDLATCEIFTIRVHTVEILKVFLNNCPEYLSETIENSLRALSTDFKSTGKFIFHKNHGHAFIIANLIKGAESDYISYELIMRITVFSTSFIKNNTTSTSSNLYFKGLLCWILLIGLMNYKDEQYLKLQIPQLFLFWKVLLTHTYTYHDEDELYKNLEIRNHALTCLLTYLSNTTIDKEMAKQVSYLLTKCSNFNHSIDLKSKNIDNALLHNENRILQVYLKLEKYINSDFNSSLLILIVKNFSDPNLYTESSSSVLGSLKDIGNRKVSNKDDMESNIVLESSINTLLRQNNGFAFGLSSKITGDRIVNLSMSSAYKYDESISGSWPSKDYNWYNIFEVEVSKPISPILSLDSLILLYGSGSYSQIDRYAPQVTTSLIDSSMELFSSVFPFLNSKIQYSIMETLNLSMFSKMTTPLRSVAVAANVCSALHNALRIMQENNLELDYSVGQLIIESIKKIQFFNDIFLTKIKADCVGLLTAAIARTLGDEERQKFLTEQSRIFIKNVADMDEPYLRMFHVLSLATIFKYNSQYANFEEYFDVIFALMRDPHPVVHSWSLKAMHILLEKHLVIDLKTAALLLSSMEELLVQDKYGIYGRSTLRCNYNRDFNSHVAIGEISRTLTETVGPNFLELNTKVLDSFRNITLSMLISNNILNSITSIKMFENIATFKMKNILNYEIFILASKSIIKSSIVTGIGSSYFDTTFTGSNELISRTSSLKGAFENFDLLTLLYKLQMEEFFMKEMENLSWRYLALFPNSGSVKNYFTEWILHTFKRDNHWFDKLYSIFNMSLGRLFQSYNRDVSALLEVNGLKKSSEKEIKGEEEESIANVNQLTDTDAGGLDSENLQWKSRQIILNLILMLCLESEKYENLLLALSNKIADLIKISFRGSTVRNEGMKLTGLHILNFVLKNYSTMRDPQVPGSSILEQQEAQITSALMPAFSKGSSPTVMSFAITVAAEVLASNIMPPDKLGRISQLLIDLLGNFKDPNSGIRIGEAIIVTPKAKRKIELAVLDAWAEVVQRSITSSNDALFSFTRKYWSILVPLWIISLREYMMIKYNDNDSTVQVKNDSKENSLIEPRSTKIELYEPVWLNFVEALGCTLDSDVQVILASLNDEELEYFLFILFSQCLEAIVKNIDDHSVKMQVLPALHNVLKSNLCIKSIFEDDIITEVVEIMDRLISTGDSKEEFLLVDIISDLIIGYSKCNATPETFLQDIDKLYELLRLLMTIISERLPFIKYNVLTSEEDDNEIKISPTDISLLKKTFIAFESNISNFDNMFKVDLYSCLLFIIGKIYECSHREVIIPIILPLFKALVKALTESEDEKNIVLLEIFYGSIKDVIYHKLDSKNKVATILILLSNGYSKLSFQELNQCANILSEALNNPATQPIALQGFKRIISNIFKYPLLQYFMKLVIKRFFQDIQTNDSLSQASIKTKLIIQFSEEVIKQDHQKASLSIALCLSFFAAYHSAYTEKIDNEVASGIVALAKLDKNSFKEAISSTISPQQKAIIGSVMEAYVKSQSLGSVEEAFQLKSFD

An interaction with Laa1, percent of wild type (% of wild-type levels) of 60 was found for “Lft1-ΔHR3 tagged with 6-HIS-TEV-3FLAG (HTF) (from UniProt Q03703 1-340) (natural protein)” in this work.

An interaction with Laa1, percent of wild type (% of wild-type levels) of 60 was found for “Lft1-ΔHR1 tagged with 6-HIS-TEV-3FLAG (HTF) (from UniProt Q03703 1-340) (natural protein)” in this work.
